Measurements as given in US20220380446A1 (ABL BIO, published 2022).
Changes are numbered by the printed parent chain. Read-outs that look alike come from different tables or passages of the source. Blank lines part the entries; values can stand above or below the binder they belong to.

Legend:
[1] = target: T1, human α-synuclein pre-formed fibrils (Human Alpha Synuclein Pre-formed Fibrils Type II, StressMarq SPR-317) (human, UniProt P37840 1-140); assay: sandwich ELISA, antibody coated, α-syn PFF added, 7B7-biotin detection
Description: (§1) Specifically, the antibodies were diluted with PBS by six-fold serial dilution from 400 nM to 0.009 nM. The diluted antibodies were added to a 96-well plate at 100 μL/well for coating. The plate was sealed and incubated at 4° C. for 16 hours. After washing with phosphate-buffered saline with Tween® (PBS-T; 0.05% Tween® 20) five times, the plate was blocked with 5% BSA in PBS 200 μL/well at 37° C. for 2 hours. After washing with PBS-T five times, α-syn PFF (2 μg/mL, 100 μL/well in 2% BSA in PBS) was added to the plate and incubated at 37° C. for 2 hours. After washing with PBS-T five times, 7B7-biotin antibody (anti-α-syn antibody; 1 μg/mL/100 μL/well, in 2% BSA in PBS) was added and incubated at 37° C. for 2 hours. After washing with PBS-T five times, the plate was incubated with horseradish peroxidase (HRP)-bound streptavidin in PBS with 2% BSA (1:5000, 1 mg/mL stock, 20 ng/well, 100 μL/well) at 37° C. for 1 hour. After washing with PBS-T five times, 3,3′,5,5′-tetramethylbenzidine (TMB) (100 μL/well) was added and incubated at room temperature for 5 minutes. The reaction was stopped by the addition of 0.5 N H₂SO₄ (50 μL/well). Optical absorbance at 450 nm was measured by using a plate reader, with absorbance at 650 nm subtracted from the reading.

[2] = target: T1, human α-synuclein pre-formed fibrils …; assay: as above; remark: listed apart in the source
Description: as §1

[3] = target: T1, human α-synuclein pre-formed fibrils …; assay: cell-based or functional assay
[4] = target: T1, human α-synuclein pre-formed fibrils …; assay: sandwich ELISA, antibody coated, α-syn PFF added, 7B7-biotin detection; remark: listed apart in the source
Description: as §1

[5] = target: T1, human α-synuclein pre-formed fibrils …; assay: as above; remark: listed apart in the source
Description: as §1

[6] = target: T1, human α-synuclein pre-formed fibrils …; assay: as above; remark: listed apart in the source
Description: as §1

[7] = target: T1, human α-synuclein pre-formed fibrils …; assay: SPR Biacore T200, antibody captured on Protein A chip, α-syn PFF analyte, 1:1 model
Description: (§2) The equipment used was Biacore® (GE Healthcare, Model T200). Protein A (GE Healthcare, Cat: 29-1275-56) was used as a chip, 10 mM glycine-HCl pH 1.5 (GE Healthcare, Cat: BR-1003-54) was used as a regeneration buffer, and HBS-EP was used as a running buffer and an analyte dilution and sample dilution buffer. […] A capture phase was carried out at a contact time of 60 seconds and a flow rate of 30 μL/min was used for a stabilization period of 60 seconds, with the target resonance units (RU) of fibril set to 10 (theoretical). In an association phase, the association time was set to 60 seconds and a flow rate was set to 60 μL/min. In a dissociation phase, the dissociation time was set to 180 seconds, and a flow rate was set to 60 μL/min. In a regeneration phase, the flow rate was set to 30 μL/min, and the regeneration time was set to 60 seconds. A 1:1 binding model was used for fitting, and the Biacore® T200 Evaluation software (GE Healthcare) was used for the evaluation.

[8] = target: T1, human α-synuclein pre-formed fibrils …; assay: as above; remark: listed apart in the source
Description: as §2

[9] = target: human α-synuclein oligomers (Dopamine HCL Stabilized Human Recombinant Alpha Synuclein Oligomers, StressMarq … (human, UniProt P37840 1-140)); assay: sandwich ELISA, antibody coated, oligomeric α-syn added, 7B7-biotin detection
Description: Human α-syn oligomers from StressMarq (Dopamine HCL Stabilized Human Recombinant Alpha Synuclein Oligomers, SPR-466) was used as the oligomeric α-syn in the assay.
In this sandwich ELISA, test antibodies were diluted with PBS by five-fold serial dilution from 80 nM to 0.005 nM. The serially diluted antibodies were added to a 96-well plate at 100 μL/well for coating. The plate was sealed and incubated at 4° C. for 16 hours. After washing with PBS-T five times, the plate was blocked with 5% BSA in PBS 200 μL/well at 37° C. for 2 hours. After washing with PBS-T five times, oligomeric α-syn (2 μg/mL, 100 μL/well in 2% BSA in PBS) was added and incubated at 37° C. for 2 hours. After washing with PBS-T five times, 7B7-biotin antibody (1 μg/mL, 100 μL/well, in 2% BSA in PBS) were added and incubated at 37° C. for 2 hours. After washing with PBS-T five times, the plate was incubated with Streptavidin-HRP in 2% BSA in PBS (1:5000, 1 mg/mL stock, 20 ng/well, 100 μL/well) at 37° C. for 1 hour. After washing with PBS-T five times, TMB (100 μL/well) was added and incubated at RT for 5 minutes. The reaction was stopped by the addition of 0.5 N H₂SO₄ (50 μL/well).

[10] = target: T1, human α-synuclein pre-formed fibrils …; assay: SPR Biacore T200, antibody captured on Protein A chip, α-syn PFF analyte, 1:1 model; remark: listed apart in the source
Description: as §2

EC50 [9]: 6.56 nM
Saturation point [9]: 3.17
B2: mouse hybridoma 1E4 (antibody, V domains shown)
VH: QVQLQQSGAELVRPGTSVKVSCKASGYAFTNYLIEWVKQRPGQGLEWIGVINPGSGGTNYNEKFKGKATLTADKSSSTAYMQLSSLTSDDSAVYFCASGNYDTYWGQGTLVTVSA
VL: DVVMTQTPLSLPVSLGDQASISCRSSQSLVHSNGNTYLHWYLQKPGQSPKLLIYKVSNRFSGVPDRFSGSGSGTDFTLKISRVEAEDLGVYFCSQSTHVPRTFGGGTKLEIK
notes: Mouse 1E4 made by the hybridoma; also called hy1E4; mouse 1E4 antibody

EC50 [1]: 2.59 nM
B4: recombinant mouse 1E4 (antibody, V domains shown)
VH: B2 VH
VL: B2 VL
notes: also called rm1E4

EC50 [2]: 0.139 nM
Kd [7]: 0.051 nM
koff [7]: 0.000854 s⁻¹
kon [7]: 1.68e+07 M⁻¹ s⁻¹
B5: hu1E4(V8_VL4) (antibody, human IgG1, V domains shown)
VH: QVQLVQSGAEVKKPGASVKVSCKASGYTFTNYLIEWVRQAPGQGLEWMGVINPGSGGTNYNEKFKGRVTMTADKSISTAYMELSRLRSDDTAVYYCASGNYDTYWGQGTLVTVSS
VL: B2 VL with T7S, S14T, D17Q, Q18P, L42Q, K44R, K50R, L88V, F92Y, L109V
notes: Monospecific; human IgG1 and kappa constant regions

EC50 [5]: 0.339 nM
B7: hu1E4(V7_VL2) (antibody, human IgG1, V domains shown)
VH: B5 VH with T28A, R38K, R67K, V68A, M70L
VL: B2 VL with P12S, S14T, L15P, D17Q, Q18P, K50Q, L88V, F92Y, G105Q
notes: as for B5

EC50 [2]: 0.114 nM
Kd [7]: 0.096 nM
koff [7]: 0.00137 s⁻¹
kon [7]: 1.42e+07 M⁻¹ s⁻¹
B8: hu1E4(V9_VL4) (antibody, human IgG1, V domains shown)
VH: B5 VH with M48I, V68A, M70L
VL: B2 VL with T7S, S14T, D17Q, Q18P, L42Q, K44R, K50R, L88V, F92Y, L109V
notes: as for B5

EC50 [6]: 1.12 nM
B14: hu1E4(V6_VL3) x Grabody B (bispecific antibody, human IgG1, kappa)
heavy 1: not shown
heavy 2: not shown
light: DVVMTQSPLSLPVTLGQPASISCRSSQSLVHSNGNTYLHWFQQRPGQSPRRLIYKVSNRFSGVPDRFSGSGSGTDFTLKISRVEAEDVGVYYCSQSTHVPRTFGGGTKVEIKRTVAAPSVFIFPPSDEQLKSGTASVVCLLNNFYPREAKVQWKVDNALQSGNSQESVTEQDSKDSTYSLSSTLTLSKADYEKHKVYACEVTHQGLSSPVTKSFNRGEC
notes: also called hu1E4(V6 VL3) × Grabody B

EC50 [4]: 0.418 nM
Kd [8]: 0.143 nM
koff [8]: 0.0015 s⁻¹
kon [8]: 1.05e+07 M⁻¹ s⁻¹
B15: hu1E4(V7_VL2) x Grabody B (bispecific antibody, human IgG1, kappa)
heavy 1: not shown
heavy 2: not shown
light: B14 light with S7T, P12S, L15P, F41Y, Q42L, R44K, R50Q, R51L, G105Q, V109L
notes: also called hu1E4(V7 VL2) × Grabody B

The next lines start with the binder.

B1: chimeric 1E4 antibody (antibody, V domains shown)
VH: B2 VH
VL: B2 VL
notes: VH and VL of mouse 1E4 with human IgG1 and kappa constant regions; also called ch1E4; Ch1E4
EC50 [1]: 1.61 nM
EC50 [2]: 0.209 nM
phagocytosis of α-syn PFF by BV-2 cells (gMFI, FACS) [3]: 2 fold against ch9E4
EC50 [4]: 0.554 nM
EC50 [5]: 0.876 nM
EC50 [6]: 0.484 nM
Kd [7]: 0.0519 nM
koff [7]: 0.00054 s⁻¹
kon [7]: 1.04e+07 M⁻¹ s⁻¹
Kd [8]: 0.0519 nM
koff [8]: 0.00054 s⁻¹
kon [8]: 1.04e+07 M⁻¹ s⁻¹

B3: hu1E4(V2_VL2) (antibody, human IgG1, V domains shown)
VH: B5 VH with M48I, R67K, M70L
VL: B2 VL with P12S, S14T, L15P, D17Q, Q18P, K50Q, L88V, F92Y, G105Q
notes: as for B5
EC50 [5]: 0.57 nM

B6: hu1E4(V1_VL1) (antibody, human IgG1, V domains shown)
VH: B5 VH with A72R, K74T
VL: B2 VL with V2I, P12S, S14T, L15P, D17Q, Q18P, K50Q, L88V, F92Y, G105Q
notes: Monospecific; fused to human IgG1 and kappa constant regions; also called humanized 1E4(V1_VL1); hu1E4(Ver.1_VL1)
EC50 [1]: 1.1 nM
EC50 [9]: 3.46 nM
Saturation point [9]: 3.16
Kd [10]: 0.0302 nM
koff [10]: 0.000415 s⁻¹
kon [10]: 1.38e+07 M⁻¹ s⁻¹
EC50 [5]: 0.619 nM
Kd [7]: 0.0276 nM
koff [7]: 0.000439 s⁻¹
kon [7]: 1.59e+07 M⁻¹ s⁻¹

B9: hu1E4(V3_VL2) (antibody, human IgG1, V domains shown)
VH: B5 VH with T28A, R38K, M48I, R67K, M70L
VL: B2 VL with P12S, S14T, L15P, D17Q, Q18P, K50Q, L88V, F92Y, G105Q
notes: as for B5
EC50 [5]: 0.577 nM

B10: hu1E4(V3_VL2) x Grabody B (bispecific antibody, human IgG1, kappa)
heavy 1: not shown
heavy 2: not shown
light: B14 light with S7T, P12S, L15P, F41Y, Q42L, R44K, R50Q, R51L, G105Q, V109L
notes: also called hu1E4(V3 VL2) × Grabody B
EC50 [4]: 0.285 nM
Kd [8]: 0.0982 nM
koff [8]: 0.000992 s⁻¹
kon [8]: 1.01e+07 M⁻¹ s⁻¹

B11: hu1E4(V5_VL4) x Grabody B (bispecific antibody, human IgG1, kappa)
heavy 1: not shown
heavy 2: not shown
light: B14 light with F41Y, R51L
notes: also called hu1E4(V5 VL4) × Grabody B
EC50 [6]: 0.284 nM
Kd [8]: 0.167 nM
koff [8]: 0.0016 s⁻¹
kon [8]: 9.96e+06 M⁻¹ s⁻¹

B12: hu1E4(V2_VL2) x Grabody B (bispecific antibody, human IgG1, kappa)
heavy 1: not shown
heavy 2: not shown
light: B14 light with S7T, P12S, L15P, F41Y, Q42L, R44K, R50Q, R51L, G105Q, V109L
notes: also called hu1E4(V2 VL2) × Grabody B
EC50 [4]: 0.364 nM

B13: hu1E4(V5_VL3) x Grabody B (bispecific antibody, human IgG1, kappa)
heavy 1: not shown
heavy 2: not shown
light: B14 light
notes: also called hu1E4(V5 VL3) × Grabody B
EC50 [6]: 1.1 nM

B16: hu1E4(V5_VL5) x Grabody B (bispecific antibody, human IgG1, kappa)
heavy 1: not shown
heavy 2: not shown
light: B14 light with F41Y, R51L, Y92F
notes: also called hu1E4(V5 VL5) × Grabody B
EC50 [6]: 0.215 nM
Kd [8]: 0.059 nM
koff [8]: 0.00067 s⁻¹
kon [8]: 1.14e+07 M⁻¹ s⁻¹
